From US20240000957A1 (published 2024)

T1: Human EphA3 Fc fusion (Human, UniProt P29320 21-541, limits assumed)
T1 construct: SPR; R&D Systems 6444-A3
T1 sequence (looked up): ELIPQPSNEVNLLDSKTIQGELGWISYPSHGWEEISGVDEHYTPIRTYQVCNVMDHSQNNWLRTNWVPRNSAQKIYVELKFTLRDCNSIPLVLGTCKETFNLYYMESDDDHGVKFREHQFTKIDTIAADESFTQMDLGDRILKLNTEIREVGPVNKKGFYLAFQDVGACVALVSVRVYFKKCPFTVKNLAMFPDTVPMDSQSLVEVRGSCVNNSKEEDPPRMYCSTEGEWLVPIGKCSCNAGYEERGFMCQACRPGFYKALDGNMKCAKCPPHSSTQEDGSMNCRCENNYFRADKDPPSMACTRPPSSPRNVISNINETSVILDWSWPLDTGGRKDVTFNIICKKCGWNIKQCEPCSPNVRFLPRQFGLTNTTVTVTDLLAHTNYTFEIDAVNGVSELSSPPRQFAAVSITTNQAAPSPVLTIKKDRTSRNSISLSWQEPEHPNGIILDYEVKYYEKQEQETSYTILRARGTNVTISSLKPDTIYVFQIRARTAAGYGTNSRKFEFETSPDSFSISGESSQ

T2: Human EphA1 Fc fusion (Human, UniProt P21709 26-547)
T2 construct: SPR; Sino Biologics 15789-H02H
T2 sequence (looked up): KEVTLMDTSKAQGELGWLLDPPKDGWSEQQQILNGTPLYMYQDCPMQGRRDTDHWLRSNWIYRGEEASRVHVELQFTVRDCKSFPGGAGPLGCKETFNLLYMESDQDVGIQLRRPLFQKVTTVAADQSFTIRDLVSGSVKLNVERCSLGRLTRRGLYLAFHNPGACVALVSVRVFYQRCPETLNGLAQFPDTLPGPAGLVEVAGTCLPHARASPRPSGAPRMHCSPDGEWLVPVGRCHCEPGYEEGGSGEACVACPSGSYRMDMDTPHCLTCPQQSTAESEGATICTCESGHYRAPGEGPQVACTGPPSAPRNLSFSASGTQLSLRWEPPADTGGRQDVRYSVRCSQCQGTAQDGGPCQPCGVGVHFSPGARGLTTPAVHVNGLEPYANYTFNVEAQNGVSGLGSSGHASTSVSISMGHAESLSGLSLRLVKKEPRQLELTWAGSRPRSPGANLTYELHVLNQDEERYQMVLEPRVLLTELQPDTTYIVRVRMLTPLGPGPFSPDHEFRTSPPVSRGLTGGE

T3: Mouse EphA3 Fc fusion (Mouse, UniProt P29319 21-540)
T3 construct: SPR; Sino Biologics 51122-M02H
T3 sequence (looked up): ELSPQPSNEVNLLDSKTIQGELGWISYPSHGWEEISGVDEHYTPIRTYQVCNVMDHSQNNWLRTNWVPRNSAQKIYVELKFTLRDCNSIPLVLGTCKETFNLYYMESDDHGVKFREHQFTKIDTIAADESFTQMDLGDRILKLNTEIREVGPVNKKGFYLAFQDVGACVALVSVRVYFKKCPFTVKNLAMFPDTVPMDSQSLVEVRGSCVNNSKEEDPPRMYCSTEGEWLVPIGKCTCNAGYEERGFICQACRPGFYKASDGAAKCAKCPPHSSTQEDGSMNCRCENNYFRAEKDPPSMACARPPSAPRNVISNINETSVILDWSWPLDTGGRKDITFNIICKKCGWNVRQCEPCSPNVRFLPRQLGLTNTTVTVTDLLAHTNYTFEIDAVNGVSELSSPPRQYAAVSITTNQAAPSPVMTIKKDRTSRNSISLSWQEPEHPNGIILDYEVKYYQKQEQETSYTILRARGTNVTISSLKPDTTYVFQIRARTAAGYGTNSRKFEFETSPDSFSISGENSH

T4: Rat EphA3 Fc fusion (Rat, UniProt O08680 21-541)
T4 construct: SPR; Sino Biologics 80465-R02H
T4 sequence (looked up): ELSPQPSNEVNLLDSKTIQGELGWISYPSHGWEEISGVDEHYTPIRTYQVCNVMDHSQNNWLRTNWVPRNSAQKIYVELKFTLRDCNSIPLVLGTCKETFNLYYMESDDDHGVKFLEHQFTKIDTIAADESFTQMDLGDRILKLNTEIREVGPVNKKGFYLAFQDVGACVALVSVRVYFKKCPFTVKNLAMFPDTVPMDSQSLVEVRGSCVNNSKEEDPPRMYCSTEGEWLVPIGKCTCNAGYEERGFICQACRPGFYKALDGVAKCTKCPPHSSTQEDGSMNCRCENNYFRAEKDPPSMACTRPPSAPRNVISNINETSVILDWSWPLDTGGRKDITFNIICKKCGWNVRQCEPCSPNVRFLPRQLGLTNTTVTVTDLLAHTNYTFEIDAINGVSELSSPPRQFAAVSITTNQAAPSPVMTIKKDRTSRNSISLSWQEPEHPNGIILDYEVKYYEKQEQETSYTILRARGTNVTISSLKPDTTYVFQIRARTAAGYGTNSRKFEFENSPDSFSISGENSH

T5: Human EphB4 Fc fusion (Human, UniProt P54760 16-539)
T5 construct: SPR; Sino Biologics 10235-H02H
T5 sequence (looked up): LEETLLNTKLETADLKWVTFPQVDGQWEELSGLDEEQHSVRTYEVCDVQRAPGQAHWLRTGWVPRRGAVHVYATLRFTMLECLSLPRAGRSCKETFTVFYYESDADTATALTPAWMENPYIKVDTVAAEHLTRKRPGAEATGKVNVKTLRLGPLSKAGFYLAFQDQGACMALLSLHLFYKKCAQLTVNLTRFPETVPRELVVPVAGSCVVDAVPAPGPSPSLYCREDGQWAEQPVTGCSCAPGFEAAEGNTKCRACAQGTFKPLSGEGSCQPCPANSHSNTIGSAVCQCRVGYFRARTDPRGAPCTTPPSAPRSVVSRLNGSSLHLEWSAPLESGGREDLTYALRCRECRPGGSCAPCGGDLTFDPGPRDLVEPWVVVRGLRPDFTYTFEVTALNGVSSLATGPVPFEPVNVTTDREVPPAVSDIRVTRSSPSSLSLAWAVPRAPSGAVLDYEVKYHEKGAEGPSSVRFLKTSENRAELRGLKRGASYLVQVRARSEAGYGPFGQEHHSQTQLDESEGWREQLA


Experiments:
[1] = target: T6, Human EphA5, biotinylated (Human, UniProt P54756 25-573, limits assumed, 3.1 mol biotin/monomer); assay: SPR
T6 construct: SPR; R&D Systems 3036-A5

Human EphA3 Fc fusion = target: T1, Human EphA3 Fc fusion; assay: SPR
Human EphA1 Fc fusion = target: T2, Human EphA1 Fc fusion; assay: SPR
Mouse EphA3 Fc fusion = target: T3, Mouse EphA3 Fc fusion; assay: SPR
Rat EphA3 Fc fusion = target: T4, Rat EphA3 Fc fusion; assay: SPR
Human EphB4 Fc fusion = target: T5, Human EphB4 Fc fusion; assay: SPR
Human EphA5 = target: T7, Human EphA5 (Human, UniProt P54756 25-573, limits assumed, biotinylated, 3.1 mol biotin/monomer); assay: SPR, biotinylated protein on streptavidin
T7 construct: Bought protein; also called R&D Systems 3036-A5
T7 sequence (P54756 25-573 limits assumed): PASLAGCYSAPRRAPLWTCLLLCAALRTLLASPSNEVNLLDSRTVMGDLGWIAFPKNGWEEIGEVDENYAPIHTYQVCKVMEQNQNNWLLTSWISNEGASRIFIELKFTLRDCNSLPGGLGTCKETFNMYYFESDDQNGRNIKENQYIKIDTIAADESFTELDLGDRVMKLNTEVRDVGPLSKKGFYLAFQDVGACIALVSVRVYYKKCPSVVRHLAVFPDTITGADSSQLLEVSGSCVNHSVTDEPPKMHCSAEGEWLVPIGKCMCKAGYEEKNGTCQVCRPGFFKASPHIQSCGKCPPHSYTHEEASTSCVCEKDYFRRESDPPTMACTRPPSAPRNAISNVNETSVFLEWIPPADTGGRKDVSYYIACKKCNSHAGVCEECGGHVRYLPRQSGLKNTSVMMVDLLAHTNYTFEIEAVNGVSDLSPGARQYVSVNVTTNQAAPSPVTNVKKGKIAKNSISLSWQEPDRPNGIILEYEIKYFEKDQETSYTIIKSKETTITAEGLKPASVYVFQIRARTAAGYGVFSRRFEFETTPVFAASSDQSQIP

T6 sequence (P54756 25-573 limits assumed): as above

| Binder | binding result [1] | binding result (Human EphA3 Fc fusion) | binding result (Human EphA1 Fc fusion) | binding result (Mouse EphA3 Fc fusion) | binding result (Rat EphA3 Fc fusion) | binding result (Human EphB4 Fc fusion) | binding result (Human EphA5) |
| --- | --- | --- | --- | --- | --- | --- | --- |
| AXDCPLVNPLCLHPGWTC (not fully specified; as BCY6014 (N-terminal (β-Ala)-Sar10; HArg; TATA scaffold on the 3 Cys) + ValCit-MMAE, Bicycle drug conjugate (BDC)) | no binding | no binding | no binding | no binding | no binding | no binding |  |
| AXDCPLVNPLCLHPGWTC (not fully specified; as BCY6014 (N-terminal (β-Ala)-Sar10; HArg; TATA scaffold on the 3 Cys) + DM1-SS(SO3H)-, Bicycle drug conjugate (BDC)) | no binding | no binding | no binding | no binding | no binding | no binding |  |
| AXDCPLVNPLCLHPGWTC (not fully specified; N-terminal (β-Ala)-Sar10 spacer precedes SEQ ID NO: 11; HArg (homoarginine) at residue 2 of SEQ ID NO: 11; three Cys cyclised on the TATA scaffold; ValCit-MMAE (MMAE-PABC-Cit-Val-glutarate) on the N-terminal amine) |  |  |  |  |  |  | no binding (tested: 25 µM) |
| AXDCPLVNPLCLHPGWTC (not fully specified; N-terminal (β-Ala)-Sar10 spacer precedes SEQ ID NO: 11; HArg (homoarginine) at residue 2 of SEQ ID NO: 11; three Cys cyclised on the TATA scaffold; DM1-SS(SO3H)- (DM1-SO3H-SPDB) on the N-terminal amine) |  |  |  |  |  |  | no binding (tested: 25 µM) |
